In the supplement of paper PMC9170038:

Key:
MS2 coat protein [1] = experiment: apparent KD of MS2 coat protein, switch ON state; designed switch direction (-1 OFF switch, 1 ON switch): 1; higher = weaker reporter binding; settings: FMN input: 0 or 200 uM; Eterna round: R93 (includes R88 designs)
Summary of the method: (§1)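 Each design's apparent KD comes from the median of binding-curve fits to its normalised clusters. Those clusters carried RNA switches transcribed on-chip from Illumina sequencing clusters. SNAP-549-labelled MS2 coat protein was titrated onto them in twofold steps (0.7 or 1.5 nM to 3 µM; per step 0.8–1.5 h down to 10–20 min). Conditions were 100 mM Tris-HCl pH 7.5, 80 mM KCl, 4 mM MgCl2, without or with constant ligand.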

MS2 coat protein [2] = experiment: apparent KD of MS2 coat protein, switch OFF state (with FMN for OFF switches, without FMN for ON switches); designed switch direction (-1 OFF switch, 1 ON switch): 1; higher = weaker reporter binding; settings: FMN input: 0 or 200 uM; Eterna round: R93 (includes R88 designs)
Summary of the method: as §1

Sequence	apparent KD of MS2 coat protein (MS2 coat protein [1]) [nM]	apparent KD of MS2 coat protein (MS2 coat protein [2]) [nM]
AUAUGACAUGAGGAUCACCCAUGUAUUCGAGCAUGAGGAUAUAUGACUAGUCAUAGGAGGAUAGAAGGCAUGGUUG [JR_SS001_Sub1217]	76.2	169
AUAUGGGCCCAUCAGGAUAUGUUCGGCGGAACAUGAGGAUCACCCAUGUGACAAAAGACGCCCACGCAGAAGGGAUUACAGGCAA [Anistera]	22	49.7
AUGAUACAUGAGGAUCACCCAUGUCACCUCACACGAGGAUAUCUGUGCAGUACUCAGUACGGAGAAGGCGUGGAAA [Same State 1.2d (Same State of Confusion2 - KL)]	20.2	78.1
AUGGUCAAGUGUGAGGAUAUCCAUGCUCCCACAUGAGGAUCACCCAUGUCUUAAAGGGCGUAAAGGGAGAAGGUACGAACGCCAC [Edatxein]	40.7	78.3
AUUAGACAUGAGGAUCACCCAUGUAGGCAGUCAUGAGGAUAUGGACAAGGUGCUCAAGGUCCAGAAGGCAUACGCC [Maxeus]	14.8	57.6
AUUUAACAUGAGGAUCACCCAUGUAGGAAUACUGCAGGAUAUCGACACGAAAAUACGUGUCGAGAAGGGCAUGAAA [SS1 MT 25]	13.8	22
CAGGACCUAGGAUAGGAUAUAUGAAUAAUUACAUGAGGAUCACCCAUGUCCAUUUAUAUGGGAACAUAGAAGGGUUCUGGUUAUG [Mat - Same state - Malcolm Mod - D134]	20.8	50.3
CAUCAACAUGAGGAUCACCCAUGUCAUUGAUGUCAAGGAUAUGGGAGACAUAAAAUUCUUCUAGAAGGUGAAAGAU [Mainuson]	636	176
CGAAAGGAGAGAGAGGAUAUCCAAAGGAAAACAUGAGGAUCACCCAUGUAGAAGGUAGGAGAUUGGGAGAAGGCUCAAGAAAGAG [salish99-ss2-144]	23	27.5
CGAAGACAUGAGGAUCACCCAUGUGGGAUUAUGGGAGGAUAUACAAAGACGAGAGUCAGAGUAGAAGGCCUAGGAG [salish99-ss1-126(!)]	28.7	47.1
CGAGAACAUGAGGAUCACCCAUGUAAUGAAUGGUCAGGAUAUGGAGAUAGAUGACAAGCGCCAGAAGGGACAUCAG [JR_SS001_Sub1001]	42.9	53.9
CGCGAACAUGAGGAUCACCCAUGUAAAUCGCAUGUAGGAUAUGGGAAACACAUUAAGAUCCCAGAAGGGCGGAAAA [Anquve]	41.3	31.2
CGCGAACAUGAGGAUCACCCAUGUGAAAAACAUAGAGGAUAUGUCGCAUGCGUGUAAAAGACAGAAGGCUAUCGCG [Normal (21/22)]	22.8	72.5
CGGAGACAUGAGGAUCACCCAUGUGAGAAGAGGCGAGGAUAUCGAAAGAAAGAAGAGAAACGAGAAGGCGCGAGCA [salish99-SS1-068]	22.9	24.4
CGGAGACAUGAGGAUCACCCAUGUGAGAAGAGGCGAGGAUAUCGAAAGAAAGAAGAGAAACGAGAAGGCGCGAGCG [salish99-SS1-076]	32.8	42.4
CGGAGACAUGAGGAUCACCCAUGUGAGAAGAGGCGAGGAUAUCGAAAGAAAGAAGAGAAACGAGAAGGCGCGAGGC [salish99-SS1-079]	21.1	41.2
CGGGAAGAGAGAGAGGAUAUCCAAAGGAAAACAUGAGGAUCACCCAUGUAGAAGGUAGGAAAUUGGGAGAAGGCUCAAGAGAGAG [salish99-ss2-134]	37.2	33.7
CUGGAACAUGAGGAUCACCCAUGUCACAGAAACUGAGGAUAUGGGCGCUAACAAGCAUGACCAGAAGGCAGACACG [Mamaes]	18	27.2
CUGGACCUAGGAUAGGAUAUGUGAAUAAUUACAUGAGGAUCACCCAUGUCCAUUUAUAUGGGAACAUAGAAGGGUUCUGGUUAAG [Mat - Same state - Malcolm Mod - D146]	42.2	66.1
GAAAAACAUGAGGAUCACCCAUGUAAGAUAAACACAGGAUAUGCGAAAAGAAAGAAAGAAGCAGAAGGGUGAAGAA [Mat - Same State 1 - Tesla mod - 40]	12.3	33.7
GAAAAACAUGAGGAUCACCCAUGUAAGAUAAACACAGGAUAUGCGAAAAUAAAUAAAUAAGCAGAAGGGUGAAGAA [Mat - Same State 1 - Tesla mod - 74]	11.5	35.2
GAAAAACAUGAGGAUCACCCAUGUAGAAAUAUGGAAGGAUAUACGAAGACGAAAGUCAAAGUAGAAGGUCUAAAAG [Garnet 96]	17	19.5
GAAAAACAUGAGGAUCACCCAUGUAGAAAUAUGGGAGGAUAUACGAAGACGAAAGUCAAAGUAGAAGGCCUAAAGA [Mat - Same State 1 - Eli mod - D103]	26.5	70.4
GAAAAACAUGAGGAUCACCCAUGUAGAAAUAUGGGAGGAUAUACUAAGACGAAAGUCGAAGUAGAAGGCCUAAAAG [Same State 1.4f (Mat - Mod of Eli - )]	21.7	54.2
GAAAAACAUGAGGAUCACCCAUGUAGAAAUAUGGGAGGAUAUUCAAAGACGAAAGUCAAAGAAGAAGGCCUAAAAG [Mat - Same State 1 - Eli mod - 36]	29.1	113
GAAAAACAUGAGGAUCACCCAUGUGAAAAUAUGGGAGGAUAUACAAAGACGAAAGUCAAAGUAGAAGGCCUAAGAG [Garnet 34]	22.1	72
GAAAAACAUGAGGAUCACCCAUGUGACAACAUGGGAGGAUAUACAUGGACGAUAGUCAAAGUAGAAGGCCUAAAAG [Garnet 63]	142	24.4
GAAAAACAUGAGGAUCACCCAUGUGAGAAUAUGGAAGGAUAUACAAAGACGAGAGUCAAAGUAGAAGGUCUAAAAG [Mat - Same State 1 - Eli mod - D21]	22.1	31.7
GAAAAACAUGAGGAUCACCCAUGUGAGAAUAUGGGAGGAUAUACAAAGACGAAAGUCAAAGUAGAAGGCCUAAAAG [Mat - Same State 1 - Eli mod - D6]	27.6	94.5
